According to publication PMC4482598:

Biological target: ryanodine receptor type 1 (RyR1), endogenous in mouse myotubes (mouse (endogenous in mouse myotubes)) (UniProt E9PZQ0)
Sequence of UniProt E9PZQ0 (E9PZQ0 whole entry): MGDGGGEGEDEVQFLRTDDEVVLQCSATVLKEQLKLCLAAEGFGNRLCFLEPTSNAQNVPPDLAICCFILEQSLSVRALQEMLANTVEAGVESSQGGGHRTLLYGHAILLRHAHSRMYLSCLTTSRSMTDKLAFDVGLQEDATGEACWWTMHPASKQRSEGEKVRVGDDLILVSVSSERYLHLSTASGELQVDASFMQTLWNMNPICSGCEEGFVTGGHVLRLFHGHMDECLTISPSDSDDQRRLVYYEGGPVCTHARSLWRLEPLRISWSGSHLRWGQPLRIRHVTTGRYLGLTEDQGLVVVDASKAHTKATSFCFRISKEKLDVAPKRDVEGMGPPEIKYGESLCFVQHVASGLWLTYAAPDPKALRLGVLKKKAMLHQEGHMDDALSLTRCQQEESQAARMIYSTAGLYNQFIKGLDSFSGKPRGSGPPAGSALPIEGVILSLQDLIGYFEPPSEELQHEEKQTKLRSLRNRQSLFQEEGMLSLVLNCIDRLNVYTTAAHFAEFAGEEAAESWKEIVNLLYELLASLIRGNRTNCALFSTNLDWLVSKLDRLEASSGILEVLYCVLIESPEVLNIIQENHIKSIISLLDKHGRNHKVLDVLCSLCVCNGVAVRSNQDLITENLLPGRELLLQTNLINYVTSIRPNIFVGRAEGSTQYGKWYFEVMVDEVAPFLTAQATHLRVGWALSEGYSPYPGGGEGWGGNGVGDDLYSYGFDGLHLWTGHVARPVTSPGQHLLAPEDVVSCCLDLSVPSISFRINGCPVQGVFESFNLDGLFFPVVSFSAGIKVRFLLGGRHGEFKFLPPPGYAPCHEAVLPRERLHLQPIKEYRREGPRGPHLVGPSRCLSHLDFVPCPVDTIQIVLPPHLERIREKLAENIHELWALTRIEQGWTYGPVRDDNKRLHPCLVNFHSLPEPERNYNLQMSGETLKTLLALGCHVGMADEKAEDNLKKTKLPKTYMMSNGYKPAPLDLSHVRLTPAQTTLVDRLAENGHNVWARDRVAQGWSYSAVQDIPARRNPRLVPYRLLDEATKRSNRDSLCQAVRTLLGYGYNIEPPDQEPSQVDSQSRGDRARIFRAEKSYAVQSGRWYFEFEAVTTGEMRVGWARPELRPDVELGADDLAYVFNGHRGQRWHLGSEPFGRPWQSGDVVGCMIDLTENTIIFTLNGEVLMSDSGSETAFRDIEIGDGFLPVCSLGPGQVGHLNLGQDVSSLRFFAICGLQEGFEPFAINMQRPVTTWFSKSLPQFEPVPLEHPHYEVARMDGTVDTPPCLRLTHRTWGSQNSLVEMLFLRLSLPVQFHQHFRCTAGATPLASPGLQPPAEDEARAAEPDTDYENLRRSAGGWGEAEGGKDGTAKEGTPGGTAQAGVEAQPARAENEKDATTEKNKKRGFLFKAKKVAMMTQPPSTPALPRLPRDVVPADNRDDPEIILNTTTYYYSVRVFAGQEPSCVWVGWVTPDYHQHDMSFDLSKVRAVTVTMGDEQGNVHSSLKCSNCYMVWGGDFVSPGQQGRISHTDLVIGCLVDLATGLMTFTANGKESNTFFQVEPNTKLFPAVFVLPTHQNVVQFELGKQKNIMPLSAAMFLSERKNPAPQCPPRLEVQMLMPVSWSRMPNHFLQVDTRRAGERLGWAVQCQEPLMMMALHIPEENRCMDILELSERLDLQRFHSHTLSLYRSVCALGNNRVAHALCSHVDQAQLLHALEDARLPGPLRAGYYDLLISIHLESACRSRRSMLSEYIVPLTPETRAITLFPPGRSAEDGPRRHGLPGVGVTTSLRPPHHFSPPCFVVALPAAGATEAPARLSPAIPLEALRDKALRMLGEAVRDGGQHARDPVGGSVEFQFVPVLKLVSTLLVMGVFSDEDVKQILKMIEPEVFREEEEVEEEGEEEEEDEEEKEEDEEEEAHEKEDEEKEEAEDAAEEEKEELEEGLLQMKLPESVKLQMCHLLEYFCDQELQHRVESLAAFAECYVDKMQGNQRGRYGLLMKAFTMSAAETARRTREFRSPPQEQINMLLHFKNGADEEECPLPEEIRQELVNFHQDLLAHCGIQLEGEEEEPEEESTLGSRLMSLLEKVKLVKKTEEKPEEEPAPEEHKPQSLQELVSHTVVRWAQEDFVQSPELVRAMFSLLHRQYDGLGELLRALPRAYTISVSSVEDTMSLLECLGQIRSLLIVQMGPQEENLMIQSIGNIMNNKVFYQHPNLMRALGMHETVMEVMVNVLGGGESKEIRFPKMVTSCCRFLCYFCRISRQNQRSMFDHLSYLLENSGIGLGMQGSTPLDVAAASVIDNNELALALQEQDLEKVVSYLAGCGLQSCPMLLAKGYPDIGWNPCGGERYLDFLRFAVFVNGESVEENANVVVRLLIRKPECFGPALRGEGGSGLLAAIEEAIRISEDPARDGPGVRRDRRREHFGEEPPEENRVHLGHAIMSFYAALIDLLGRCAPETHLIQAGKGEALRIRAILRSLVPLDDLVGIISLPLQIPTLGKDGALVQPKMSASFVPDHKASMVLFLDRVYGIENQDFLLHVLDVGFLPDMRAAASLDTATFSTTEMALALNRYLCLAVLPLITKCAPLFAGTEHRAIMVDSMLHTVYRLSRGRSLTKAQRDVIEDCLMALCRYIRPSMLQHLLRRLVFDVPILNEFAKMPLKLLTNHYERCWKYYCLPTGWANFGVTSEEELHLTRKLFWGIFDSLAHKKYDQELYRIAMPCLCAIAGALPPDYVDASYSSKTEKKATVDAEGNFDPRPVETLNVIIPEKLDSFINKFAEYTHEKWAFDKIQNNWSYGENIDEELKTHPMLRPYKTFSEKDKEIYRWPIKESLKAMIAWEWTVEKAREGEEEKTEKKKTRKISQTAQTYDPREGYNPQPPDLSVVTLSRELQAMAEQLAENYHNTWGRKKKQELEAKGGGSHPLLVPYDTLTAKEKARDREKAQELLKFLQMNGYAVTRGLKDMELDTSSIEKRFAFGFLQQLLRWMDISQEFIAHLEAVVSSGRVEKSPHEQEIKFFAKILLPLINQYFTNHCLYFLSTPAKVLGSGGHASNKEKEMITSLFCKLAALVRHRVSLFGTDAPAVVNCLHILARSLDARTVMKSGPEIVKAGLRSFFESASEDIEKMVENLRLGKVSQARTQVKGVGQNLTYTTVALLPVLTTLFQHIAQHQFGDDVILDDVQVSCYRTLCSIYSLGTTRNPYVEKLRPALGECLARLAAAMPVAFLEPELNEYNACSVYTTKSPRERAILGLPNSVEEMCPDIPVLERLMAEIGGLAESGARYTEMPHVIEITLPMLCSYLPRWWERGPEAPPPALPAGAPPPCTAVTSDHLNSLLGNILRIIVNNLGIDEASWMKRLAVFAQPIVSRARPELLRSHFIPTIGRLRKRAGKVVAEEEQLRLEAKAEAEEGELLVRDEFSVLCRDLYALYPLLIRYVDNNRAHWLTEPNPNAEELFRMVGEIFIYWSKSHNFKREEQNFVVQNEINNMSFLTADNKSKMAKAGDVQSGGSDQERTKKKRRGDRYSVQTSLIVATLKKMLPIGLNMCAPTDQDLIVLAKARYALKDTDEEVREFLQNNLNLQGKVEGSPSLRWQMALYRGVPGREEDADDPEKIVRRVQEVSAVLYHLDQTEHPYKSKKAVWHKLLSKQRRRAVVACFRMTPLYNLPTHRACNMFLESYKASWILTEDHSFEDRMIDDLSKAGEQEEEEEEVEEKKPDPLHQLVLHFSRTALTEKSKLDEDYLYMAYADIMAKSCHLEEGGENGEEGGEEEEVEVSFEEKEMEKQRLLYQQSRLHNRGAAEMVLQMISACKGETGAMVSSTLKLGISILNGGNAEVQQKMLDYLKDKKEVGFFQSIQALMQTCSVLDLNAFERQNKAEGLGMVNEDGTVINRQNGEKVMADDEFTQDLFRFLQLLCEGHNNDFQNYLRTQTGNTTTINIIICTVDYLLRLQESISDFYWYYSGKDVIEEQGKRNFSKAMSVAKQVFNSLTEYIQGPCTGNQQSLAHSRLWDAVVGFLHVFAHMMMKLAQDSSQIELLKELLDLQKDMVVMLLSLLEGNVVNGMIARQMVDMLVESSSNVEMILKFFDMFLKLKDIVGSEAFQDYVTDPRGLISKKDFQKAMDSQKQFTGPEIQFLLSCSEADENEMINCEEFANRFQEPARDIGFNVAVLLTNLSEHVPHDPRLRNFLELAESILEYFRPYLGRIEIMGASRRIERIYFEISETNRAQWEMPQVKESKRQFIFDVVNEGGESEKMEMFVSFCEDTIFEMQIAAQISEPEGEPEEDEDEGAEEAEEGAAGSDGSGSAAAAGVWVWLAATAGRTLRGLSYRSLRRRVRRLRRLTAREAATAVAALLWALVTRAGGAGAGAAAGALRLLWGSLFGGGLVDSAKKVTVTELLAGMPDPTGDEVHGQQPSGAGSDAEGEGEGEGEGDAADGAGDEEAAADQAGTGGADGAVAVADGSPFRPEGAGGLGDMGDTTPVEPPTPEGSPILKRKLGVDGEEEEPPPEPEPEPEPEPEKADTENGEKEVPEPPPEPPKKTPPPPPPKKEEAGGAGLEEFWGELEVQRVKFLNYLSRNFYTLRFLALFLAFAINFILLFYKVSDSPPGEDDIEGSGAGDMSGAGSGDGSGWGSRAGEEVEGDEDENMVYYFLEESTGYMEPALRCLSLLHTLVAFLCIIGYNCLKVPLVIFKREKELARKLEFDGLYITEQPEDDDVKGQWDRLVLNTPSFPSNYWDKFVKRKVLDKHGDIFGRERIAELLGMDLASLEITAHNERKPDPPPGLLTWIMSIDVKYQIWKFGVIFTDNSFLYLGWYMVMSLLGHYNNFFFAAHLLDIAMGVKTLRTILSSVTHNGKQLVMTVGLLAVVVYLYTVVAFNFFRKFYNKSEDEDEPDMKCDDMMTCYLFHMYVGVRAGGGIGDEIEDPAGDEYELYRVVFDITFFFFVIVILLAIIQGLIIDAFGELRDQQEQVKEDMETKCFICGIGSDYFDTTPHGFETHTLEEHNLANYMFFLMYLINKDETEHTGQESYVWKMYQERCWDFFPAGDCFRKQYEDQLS

intramolecular FRET efficiency (C-terminal CFP to FlAsH at H458) of construct 21 in ß1 KO myotubes (control without native ß1 subunits): 0.12
Substance: H458 CCPGCC ß1a-CFP (construct 21) (natural protein)
